Usually EC50 stands for the midpoint of the concentration-response curve. A higher EC50 goes with a less potent agent.

The test addresses rat prolactin receptor (PRLR) on Nb2 lymphoma cells (rat) (UniProt P05710). As to the kind of experiment: FACS on rat lymphoma cell line Nb2, IgG1.

B1: HE06.642 (antibody, IgG1, V domains shown)
VH: EVQLVESGGGLVQPGGSLRLSCAVSGFTFSSYGMSWVRQAPGKGLEWVATVSSGGTYTYYPDSVKGRFTISRDNSKNTLYLQMNSLRAEDTAVYYCARHRGNYYATYYYAMDYWGQGTLVTVSS
VL: DIVLTQSPDSLAVSLGERATINCKASKSVSTSGYTYMHWYQQKPGQPPKLLIYLASNRESGVPDRFSGSGSGTDFTLTISPVQAEDVATYYCQHSGELPPSFGQGTKLEIKR
B1 displayed an EC50 of 0.3 nM.

B2: 001-E06 (human IgG1) (antibody, V domains shown)
VH: QVELLESGGGLVQPGGSLRLSCAASGFTFSSYWMSWVRQAPGKGLEWVSSVSDTGTDTHYADSVKGRFTISRDNSKNTLYLQMNSLRAEDTAVYYCAKTPLAYSSGWYYFDYWGQGTLVTVSS
VL: DIVLTQPPSASGTPGQRVTISCSGSSSNIGSNTVNWYQQLPGTAPKLLIYRNYQRPSGVPDRFSGSKSGTSASLAISGLRSEDEADYYCQSYDSSLSGSVFGGGTKLTVLG
B2: the EC50 was found to be 1.2 nM.

For the origin of these results see patent US20130171147A1.
